pKd: −log10 of the molar value.

Broadly, the pKd is −log10 of the Kd, conventionally taken in molar units. Higher therefore signals a low Kd.

For this experiment, the target named is human H3.1/H4 tetramer (ITC sample) (human) (UniProt P68431). Nature of the experiment: ITC. (In general: In ITC the heat of successive injections is recorded.)

“mouse POLA1 N1 fragment (ITC sample) (from UniProt P33609 1-110) (domain or fragment)” had a negative-log Kd (pKd) of 5.10.

The values above are taken from publication PMC7449674.
